# According to the Immune Epitope Database (IEDB):
# How the values were obtained:
# HLA-A*26:01 = experiment: IEDB peptide-MHC binding, purified MHC/direct/fluorescence; filed as Kd, often an IC50 or EC50 that approximates it; ≥ and ≤ were set here for values at or beyond the usual limits of such assays
# HLA-B*40:01 [1] = experiment: as above
# HLA-B*15:09 = experiment: as above
# HLA-A*69:01 = experiment: as above
# HLA-A*31:01 [2] = experiment: as above
# HLA-A*02:01 [3] = experiment: as above
# HLA-B*44:02 [4] = experiment: as above
# HLA-B*15:01 = experiment: as above
# HLA-A*24:02 = experiment: as above
# HLA-B*27:05 = experiment: as above
# HLA-B*58:01 = experiment: as above
# HLA-B*07:02 [5] = experiment: as above
# HLA-B*46:01 = experiment: as above
# HLA-A*01:01 [6] = experiment: as above
# HLA-A*03:01 [7] = experiment: as above
# HLA-B*08:02 = experiment: as above
# HLA-B*08:01 [8] = experiment: as above
# HLA-A*11:01 [9] = experiment: as above
# HLA-B*18:01 [10] = experiment: as above
# HLA-A*24:03 = experiment: as above; conditions: source organism: Influenza A virus (A/camel/Mongolia/1982(H1N1))
# HLA-B*54:01 = experiment: IEDB peptide-MHC binding, purified MHC/competitive/radioactivity; filed as Kd, often an IC50 or EC50 that approximates it; ≥ and ≤ were set here for values at or beyond the usual limits of such assays; conditions: source organism: Hepacivirus hominis
# HLA-B*40:02 = experiment: as above; conditions: source organism: Hepacivirus hominis
# HLA-B*44:03 = experiment: as above; conditions: source organism: Hepacivirus hominis
# HLA-B*53:01 = experiment: as above; conditions: source organism: Hepacivirus hominis
# HLA-A*68:01 = experiment: as above; conditions: source organism: Hepacivirus hominis
# HLA-B*08:01 [11] = experiment: as above; conditions: source organism: Hepacivirus hominis
# HLA-B*40:01 [12] = experiment: as above; conditions: source organism: Hepacivirus hominis
# HLA-B*35:01 = experiment: as above; conditions: source organism: Hepacivirus hominis
# HLA-A*02:06 = experiment: as above; conditions: source organism: Hepacivirus hominis
# HLA-A*31:01 [13] = experiment: as above; conditions: source organism: Hepacivirus hominis
# HLA-A*02:01 [14] = experiment: as above; conditions: source organism: Hepacivirus hominis
# HLA-B*44:02 [15] = experiment: as above; conditions: source organism: Hepacivirus hominis
# HLA-B*07:02 [16] = experiment: as above; conditions: source organism: Hepacivirus hominis
# HLA-A*11:01 [17] = experiment: as above; conditions: source organism: Hepacivirus hominis
# HLA-A*02:02 = experiment: as above; conditions: source organism: Hepacivirus hominis
# HLA-A*01:01 [18] = experiment: as above; conditions: source organism: Hepacivirus hominis
# HLA-A*03:01 [19] = experiment: as above; conditions: source organism: Hepacivirus hominis
# HLA-B*51:01 = experiment: as above; conditions: source organism: Hepacivirus hominis
# HLA-A*02:03 = experiment: as above; conditions: source organism: Hepacivirus hominis
# HLA-B*18:01 [20] = experiment: as above; conditions: source organism: Hepacivirus hominis
# HLA-A*33:01 = experiment: as above; conditions: source organism: Hepacivirus hominis
# HLA-A*68:02 = experiment: as above; conditions: source organism: Hepacivirus hominis
# [21] = source organism: Vibrio vulnificus CMCP6
# [22] = source organism: Vibrio parahaemolyticus
# [23] = source organism: Influenza A virus (A/camel/Mongolia/1982(H1N1))
# [24] = source organism: Influenza A virus (A/Puerto Rico/8/34/Mount Sinai(H1N1))
# [25] = source organism: Influenza A virus H3N2
# [26] = source organism: Giardia lamblia ATCC 50803
# [27] = source organism: Influenza B virus (B/Chiba/447/98)
# [28] = source organism: Influenza A virus (A/chicken/Hunan/fg/2004(H5N1))
sequence,measurement,setting,value
ASEELMDKY,Kd,HLA-A*26:01; [21],≥ 20 µM
same,Kd,HLA-B*40:01 [1]; [22],≥ 20 µM
same,Kd,HLA-B*15:09; [21],≥ 20 µM
same,Kd,HLA-A*69:01; [22],≥ 20 µM
same,Kd,HLA-A*31:01 [2]; [22],≥ 20 µM
same,Kd,HLA-A*02:01 [3]; [22],≥ 20 µM
same,Kd,HLA-B*44:02 [4]; [22],≥ 20 µM
same,Kd,HLA-B*15:01; [22],≥ 20 µM
same,Kd,HLA-A*24:02; [22],≥ 20 µM
same,Kd,HLA-B*27:05; [22],≥ 20 µM
same,Kd,HLA-B*58:01; [22],≥ 20 µM
same,Kd,HLA-B*07:02 [5]; [22],≥ 20 µM
same,Kd,HLA-B*46:01; [22],≥ 20 µM
same,Kd,HLA-A*01:01 [6]; [22],0.0272 µM
same,Kd,HLA-A*03:01 [7]; [22],≥ 20 µM
same,Kd,HLA-B*08:02; [21],≥ 20 µM
EKFFPSSSY,Kd,HLA-B*08:01 [8]; [23],≥ 20 µM
same,Kd,HLA-A*69:01; [23],≥ 20 µM
same,Kd,HLA-A*31:01 [2]; [23],≥ 20 µM
same,Kd,HLA-A*02:01 [3]; [23],≥ 20 µM
same,Kd,HLA-B*15:01; [24],1.12 µM
same,Kd,HLA-A*24:02; [23],≥ 20 µM
same,Kd,HLA-B*27:05; [23],≥ 20 µM
same,Kd,HLA-B*58:01; [23],≥ 20 µM
same,Kd,HLA-B*07:02 [5]; [23],≥ 20 µM
same,Kd,HLA-A*11:01 [9]; [23],≥ 20 µM
same,Kd,HLA-A*01:01 [6]; [23],≥ 20 µM
same,Kd,HLA-A*03:01 [7]; [23],≥ 20 µM
same,Kd,HLA-B*08:02; [25],≥ 20 µM
IVKYKQYLK,Kd,HLA-B*08:01 [8]; [26],≥ 20 µM
same,Kd,HLA-B*40:01 [1]; [26],≥ 20 µM
same,Kd,HLA-A*69:01; [26],≥ 20 µM
same,Kd,HLA-A*02:01 [3]; [26],≥ 20 µM
same,Kd,HLA-B*44:02 [4]; [26],≥ 20 µM
same,Kd,HLA-B*15:01; [26],≥ 20 µM
same,Kd,HLA-A*24:02; [26],≥ 20 µM
same,Kd,HLA-B*27:05; [26],≥ 20 µM
same,Kd,HLA-B*58:01; [26],≥ 20 µM
same,Kd,HLA-B*07:02 [5]; [26],≥ 20 µM
same,Kd,HLA-B*46:01; [26],≥ 20 µM
same,Kd,HLA-A*01:01 [6]; [26],≥ 20 µM
same,Kd,HLA-A*03:01 [7]; [26],0.0815 µM
same,Kd,HLA-B*08:02; [26],≥ 20 µM
same,Kd,HLA-B*18:01 [10]; [26],≥ 20 µM
KFFPSSSYR,Kd,HLA-B*08:01 [8]; [23],≥ 20 µM
same,Kd,HLA-B*40:01 [1]; [23],≥ 20 µM
same,Kd,HLA-B*15:09; [25],≥ 20 µM
same,Kd,HLA-A*69:01; [23],≥ 20 µM
same,Kd,HLA-A*02:01 [3]; [23],≥ 20 µM
same,Kd,HLA-B*44:02 [4]; [23],≥ 20 µM
same,Kd,HLA-B*15:01; [23],≥ 20 µM
same,Kd,HLA-A*24:02; [23],≥ 20 µM
same,Kd,HLA-B*27:05; [23],≥ 20 µM
same,Kd,HLA-B*58:01; [23],≥ 20 µM
same,Kd,HLA-B*07:02 [5]; [23],≥ 20 µM
same,Kd,HLA-B*46:01; [23],≥ 20 µM
same,Kd,HLA-A*01:01 [6]; [23],≥ 20 µM
same,Kd,HLA-A*03:01 [7]; [24],0.184 µM
same,Kd,HLA-A*24:03,≥ 20 µM
same,Kd,HLA-B*18:01 [10]; [23],≥ 20 µM
RPALVFDITK,Kd,HLA-B*54:01,11.2 µM
same,Kd,HLA-B*40:02,≥ 70.8 µM
same,Kd,HLA-B*44:03,15.6 µM
same,Kd,HLA-B*53:01,18.9 µM
same,Kd,HLA-A*68:01,0.133 µM
same,Kd,HLA-B*08:01 [11],≥ 49.8 µM
same,Kd,HLA-B*40:01 [12],≥ 69.6 µM
same,Kd,HLA-B*35:01,≥ 27.4 µM
same,Kd,HLA-A*02:06,12.3 µM
same,Kd,HLA-A*31:01 [13],≥ 70 µM
same,Kd,HLA-A*02:01 [14],≥ 37.4 µM
same,Kd,HLA-B*44:02 [15],≥ 70.2 µM
same,Kd,HLA-B*07:02 [16],0.222 µM
same,Kd,HLA-A*11:01 [17],0.796 µM
same,Kd,HLA-A*02:02,≥ 70 µM
same,Kd,HLA-A*01:01 [18],≥ 51.3 µM
same,Kd,HLA-A*03:01 [19],≥ 29.7 µM
same,Kd,HLA-B*51:01,≥ 69.6 µM
same,Kd,HLA-A*02:03,≥ 70.4 µM
same,Kd,HLA-B*18:01 [20],≥ 70.5 µM
same,Kd,HLA-A*33:01,≥ 70 µM
same,Kd,HLA-A*68:02,≥ 69.8 µM
SVFHEHIFK,Kd,HLA-A*26:01; [26],≥ 20 µM
same,Kd,HLA-B*40:01 [1]; [26],≥ 20 µM
same,Kd,HLA-A*69:01; [26],≥ 20 µM
same,Kd,HLA-A*31:01 [2]; [26],0.134 µM
same,Kd,HLA-A*02:01 [3]; [26],≥ 20 µM
same,Kd,HLA-B*44:02 [4]; [26],≥ 20 µM
same,Kd,HLA-B*15:01; [26],≥ 20 µM
same,Kd,HLA-A*24:02; [26],≥ 20 µM
same,Kd,HLA-B*27:05; [26],≥ 20 µM
same,Kd,HLA-B*58:01; [26],≥ 20 µM
same,Kd,HLA-B*07:02 [5]; [26],≥ 20 µM
same,Kd,HLA-A*11:01 [9]; [26],0.0092 µM
same,Kd,HLA-A*01:01 [6]; [26],≥ 20 µM
same,Kd,HLA-A*03:01 [7]; [26],0.154 µM
YSHGTGTGY,Kd,HLA-A*26:01; [27],0.02 µM
same,Kd,HLA-B*08:01 [8]; [28],≥ 20 µM
same,Kd,HLA-B*40:01 [1]; [28],≥ 20 µM
same,Kd,HLA-A*69:01; [28],≥ 20 µM
same,Kd,HLA-A*31:01 [2]; [28],≥ 20 µM
same,Kd,HLA-A*02:01 [3]; [28],≥ 20 µM
same,Kd,HLA-B*15:01; [24],0.099 µM
same,Kd,HLA-A*24:02; [28],≥ 20 µM
same,Kd,HLA-B*27:05; [28],≥ 20 µM
same,Kd,HLA-B*58:01; [28],0.905 µM
same,Kd,HLA-B*07:02 [5]; [28],≥ 20 µM
same,Kd,HLA-A*11:01 [9]; [28],≥ 20 µM
same,Kd,HLA-A*03:01 [7]; [28],≥ 20 µM
same,Kd,HLA-B*08:02; [27],≥ 20 µM
